Results from PMC11006224.

Molecular target: human FcRn-b2m protein construct containing an AviTag (human) (UniProt P55899)
Experiment: BLI

UniProt P55899, sequence (P55899 24-365, chain 1 of 2): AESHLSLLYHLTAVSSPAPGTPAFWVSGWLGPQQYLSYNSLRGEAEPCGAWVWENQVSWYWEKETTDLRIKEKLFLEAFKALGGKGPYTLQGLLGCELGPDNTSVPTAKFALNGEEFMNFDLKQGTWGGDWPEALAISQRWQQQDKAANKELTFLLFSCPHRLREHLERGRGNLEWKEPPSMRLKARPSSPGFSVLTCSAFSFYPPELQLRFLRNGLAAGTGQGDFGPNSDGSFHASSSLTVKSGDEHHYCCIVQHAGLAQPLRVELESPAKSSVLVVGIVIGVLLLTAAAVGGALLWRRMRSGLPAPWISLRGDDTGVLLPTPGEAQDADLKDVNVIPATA
UniProt P55899, sequence (P61769 21-119, chain 2 of 2, further chain): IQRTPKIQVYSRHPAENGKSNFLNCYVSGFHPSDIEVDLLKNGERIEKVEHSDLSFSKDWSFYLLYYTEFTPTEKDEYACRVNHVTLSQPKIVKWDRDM

Question: With “rituximab IgG1, full length (from UniProt P01857 1-399) (antibody)” as the substance, how does the Kd read?
Answer: 14.3 nM
